We go through two substances from article PMC11507936.

Experiment [1] concerns the target SARS-CoV-2 Nucleocapsid protein (N), unmodified (SARS-CoV-2) (UniProt P0DTC9). Description: […].
Experiment [2] addresses phosphorylated SARS-CoV-2 Nucleocapsid protein (pN) (SARS-CoV-2) (UniProt P0DTC9). The experiment is described as follows: […].

Consider “6xHis-GFP-M^104–222 (C-terminal endodomain of the SARS-CoV-2 Membrane protein) (from UniProt P0DTC5 104-222) (domain or fragment)”, for which the figures for the partition coefficient in experiment [1] and in experiment [2] were 9.8 and 0.3, respectively.

Regarding “6xHis-GFP-Nsp3^1–111 (ubiquitin-like domain 1 of SARS-CoV-2 Nsp3) (domain or fragment)”, the partition coefficient in experiment [1] stood at 12.6; in experiment [2], 2.2.
